For orientation: Km means the concentration of substrate that gives half-maximal velocity. What is called Vmax is the rate approached at saturating substrate. As a reminder, the kcat is the number of substrate molecules converted per active site and unit of time at saturation. The term kcat/Km denotes the turnover number divided by the Michaelis constant.

The source of these data is publication PMC4309839, “Functional classification and biochemical characterization of a novel rho class glutathione S-transferase in Synechocystis PCC 6803” (FEBS Open Bio, 2014).

This data set deals with O=C(O)C(Cl)Cl. As to the kind of experiment: purified protein. To be noted: 1 mM GSH, 0.05-1 mM DCA, 100 mM phosphate pH 7.4, 37 °C. In kind it is biochemical, Synechocystis sp. PCC 6803.

Regarding “sll1545 (Synechocystis sp. PCC 6803 substr. Kazusa)”, the Michaelis constant (Km) was 0.14 ± 0.02 mM, the maximum rate (Vmax) came out at 11.8 µmol/min, the kcat is 82.17 ± 0.23 s⁻¹ and the kcat/Km was 574600 ± 990 M⁻¹ s⁻¹.
